In patent US20220411525A1, “BCMA AS A TARGET FOR T CELL REDIRECTING ANTIBODIES IN B CELL LYMPHOMAS” (Janssen Pharmaceutica NV, priority 2021, published 2022):

Molecular target: B cell maturation antigen (BCMA) (human) (UniProt Q02223)
Assay: cell-based or functional assay

Sequence of B cell maturation antigen (BCMA) (human) (Q02223 whole entry): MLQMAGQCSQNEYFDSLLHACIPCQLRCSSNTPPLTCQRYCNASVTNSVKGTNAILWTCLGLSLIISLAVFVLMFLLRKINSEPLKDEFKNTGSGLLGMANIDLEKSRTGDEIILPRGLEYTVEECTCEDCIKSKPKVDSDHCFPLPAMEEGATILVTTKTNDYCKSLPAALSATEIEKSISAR

**Q.** How did the average cell death of primary CLL cells, HD PBMCs 10:1 E:T, 96 h, 100 ng/mL, no γ-secretase inhibitor (first T cell donor) turn out when “BCMAxCD3 DuoBody Teclistamab (JNJ-64007957) (bispecific antibody)” was run?
**A.** 15.8%

**Q.** What about the average cell death of primary CLL cells, HD PBMCs 10:1 E:T, 96 h, 100 ng/mL, no γ-secretase inhibitor (second T cell donor) of the same substance?
**A.** 20%

**Q.** What about the average cell death of primary CLL cells, HD PBMCs 10:1 E:T, 96 h, 100 ng/mL, with 100 nM γ-secretase inhibitor (first T cell donor) of the same substance?
**A.** 25.8%

**Q.** And the average cell death of primary CLL cells, HD PBMCs 10:1 E:T, 96 h, 100 ng/mL, with 100 nM γ-secretase inhibitor (second T cell donor)?
**A.** 27.4%

**Q.** What about the average lysis of primary CLL cells, HD PBMCs 10:1 E:T, 48 h, 100 ng/mL, no γ-secretase inhibitor (first T cell donor) of the same substance?
**A.** 12.9%

**Q.** And the average lysis of primary CLL cells, HD PBMCs 10:1 E:T, 48 h, 100 ng/mL, no γ-secretase inhibitor (second T cell donor)?
**A.** 16.4%

**Q.** And the average lysis of primary CLL cells, HD PBMCs 10:1 E:T, 48 h, 100 ng/mL, with 100 nM γ-secretase inhibitor (first T cell donor)?
**A.** 14.9%

**Q.** And the average lysis of primary CLL cells, HD PBMCs 10:1 E:T, 48 h, 100 ng/mL, with 100 nM γ-secretase inhibitor (second T cell donor)?
**A.** 21.6%

**Q.** And the lysis of primary CLL cells by HD CD8+ T cells, 5:1 E:T, 96 h, 100 ng/mL?
**A.** < 60%

**Q.** What about the mean lysis of primary CLL cells by autologous CLL derived T cells, 5:1 E:T, 96 h, 100 ng/mL of the same substance?
**A.** 40%
